# From patent US11360100B2, “Methods and compositions useful in detecting proteins” (OREGON HEALTH & SCIENCE UNIVERSITY, priority 2016, dated 2022)
# “Also recorded” adds a separate entry of the source. AF647 = AlexaFluor 647; Cy5 = Cy5 cyanine dye
# B1: CoilR-Cy5: CoilR probe peptide conjugated to Cy5 (conjugate)
# peptide: MGGSLEIRAAFLRQRNTALRTEVAELEQEVQRLENEVSQYETRYGPLGGGAAALGC(Cy5)LAAALEHHHHHH
# B2: CoilZ-fluorescein: green fluorescent CoilZ probe peptide, maleimide conjugate (conjugate)
# peptide: MGSSQKVAQLKNRVAYKLKENAKLENIVARLENDNANLEKDIANLEKDIANLERDVARGGGAAACLGKLAAALEHHHHHH
# B3: CoilY-AF647: CoilY probe peptide conjugated to AlexaFluor 647 (conjugate)
# peptide: MGSSNTVKELKNYIQELEERNAELKNLKEHLKFAKAELEFELAAHKFEGGGAAAC(AF647)LGKLAAALEHHHHHH
# modifications: not fully specified
# Assays:
# [1] = tested on: untagged mEmerald constructs; assay: VIPER labeling of fixed, permeabilized U-2 OS cells, untagged constructs; format: cell-based; conditions: 100 nM probe, same acquisition settings
# Experimental: The CoilE and CoilR peptides were assessed for their ability to label intracellular structures without perturbing normal trafficking and distribution of the tagged proteins. U-2 OS cells were transfected with mEmerald-actin-C18, mEmerald-CoilE-actin-C18, H2B-6-mEmerald, H2B-6-CoilE-mEmerald, Mito-7-mEmerald, and Mito-7-CoilE-mEmerald and fixed with 4% PFA 24 hours after transfection. Cells were then lightly permeabilized and then labeled with 100 nM CoilR-Cy5 in a blocking buffer. Cells were fixed and imaged using with line-scanning confocal microscope. […] VIPER labeling was specific, given by the colocalization of features between the VIPER(Cy5) and mEmerald signal.
# untagged TfR1 = molecular target: T1, untagged TfR1 (Homo sapiens, UniProt P02786); assay: CoilR probe labeling of CHO TRVb cells expressing untagged TfR1; format: cell-based; conditions: labeled at 4° C.
# T1 construct: expressed in transfected cells; host or cells: CHO TRVb
# His6-CoilY-mCherry = assay: Detection limit comparison on PVDF membrane (peptide vs immunolabeling); format: binding; conditions: serial dilutions 400 ng to 0.8 ng
# Experimental: FIG. 10 is a detection limit comparison between peptide and immunolabeling. Serial dilutions of CoilY-mCherry (400 ng to 0.8 ng) were run on two identical SDS-PAGE gels before transfer to a PVDF membrane. The first membrane (top) was treated with CoilZ-fluorescein (CoilZ-FL) and imaged (ex 475/42 nm; em 537/35 nm). The second membrane (bottom) was labeled using an AF488-conjugated anti-His antibody “AF488-His” (QIAGEN, product number 35310) and imaged (475/42 nm excitation, 537/35 nm emission).
# The disclosed method is a sensitive alternative to fluorescent immunoblotting. Purified His6-CoilY-mCherry was generated and the sensitivity of detection of the His6-CoilY-mCherry using our CoilZ-fluorescein was compared to that of an AF488-labeled anti-His antibody from Qiagen. CoilZ-fluorescein could detect as little as 3 ng of His6-CoilY-mCherry, while the antibody required 8-fold more target protein (FIG. 10).
# Specifically, purified His6-mCherry and His6-CoilY-mCherry were loaded on a 10% SDS-PAGE gel for separation. Electrophoresis occurred at 165 V for 1 h. […]
# Decreasing quantities of purified CoilY-mCherry (400 ng to 0.8 ng) were resolved by SDS-PAGE and transferred to a PVDF membrane. […] CoilY-mCherry was detected by blotting with anti-pentahistidine mouse antibody conjugated to AlexaFluor488 (1:5000, QIAGEN; product number 35310). […]
# CoilY-mCherry [2] = assay: SDS-PAGE/PVDF membrane labeling of transfected HEK293FT lysates, CoilY-mCherry; format: binding; conditions: cell lysates, SDS-PAGE, PVDF membrane
# Experimental: The CoilY and CoilZ pair could be used to label two protein targets simultaneously. Transfected HEK293FT cell lysates from cells expressing mCherry, CoilY-mCherry, EGFP, or CoilZ-EGFP were resolved by SDS-PAGE and transferred to a PVDF membrane. The membrane was incubated sequentially with CoilZ-fluorescein and CoilY-rhodamine before imaging. GFP and mCherry fluorescence was not preserved due to SDS-PAGE protein denaturation.
# (§1) A protein gel-based assay was optimized for analyzing VIP tags in vitro. Cell lysates were made from cells transfected with mCherry, CoilY-mCherry, GFP, or CoilZ-GFP, resolved by SDS-PAGE, and transferred to a membrane. GFP and mCherry fluorescence were not preserved in this experiment. The membrane was then contacted with CoilZ-fluorescein and CoilY-rhodamine before imaging. […] The probe peptides were specific for each tagged protein, and this single pair enabled specific and selective protein tagging of two distinct targets. In addition both the VIP E/R and VIP Y/Z tag sets could be used concurrently to label two recombinant proteins (DHFR and mCherry) without crosstalk (FIG. 23).
# [3] = tested on: untagged mCherry and DHFR; assay: SDS-PAGE/PVDF membrane labeling, untagged proteins; format: binding; conditions: lysates and purified proteins, PVDF membrane
# Experimental: Crude lysates (lys.) and purified proteins (serial dilutions) were resolved by SDS-PAGE. Lysates were prepared from HERK 293FT cells transfected with mCherry, CoilY-mCherry, DHFR, and CoilE-DHFR. The protein gel was transferred to a PVDF membrane and then incubated with CoilZ-Fluorescein and CoilR-rhodamine. After washing, the membrane was imaged to detect VIPER labeling of DHFR (red) and VIP Y/Z labeling of mCherry (green). Untagged proteins were not labeled by either CoilR-rhodamine or CoilZ-fluorescein.
# as §1
# [4] = tested on: untagged GFP/EGFP and mCherry; assay: Fluorescence microscopy, cells expressing untagged fluorescent proteins; format: cell-based, human
# Experimental: (§2) Fluorescence microscopy was used to confirm that the VIP Y/Z tag set enabled selective fluorescent labeling of proteins (FIGS. 3A and 3B). CoilZ was expressed by fusion to a cell-surface localized variant of GFP (CoilZ-GFP; pDisplay vector). […] Labeling was rapid (<30 min), target-specific, and live-cell compatible. Homodimerization between a CoilZ probe peptide and CoilZ-GFP was not observed. Cells expressing untagged GFP were not labeled with the CoilY probe peptide. CoilY was also expressed fused to the cell surface localized GFP and visualized using a CoilZ-AF647 probe peptide (FIG. 3B). No homodimerization of CoilY was observed, and the labeling was specific.
# (§3) It was next confirmed that the VIP Y/Z tag set could be used in two-target imaging in fixed cells (FIGS. 5B and 13). A combination of cell lines singly-transfected with mCherry, GFP, CoilY-mCherry, or CoilZ-GFP was used, as illustrated in FIG. 9. […] Then we labeled two tagged FPs in one sample using a mixed population of cells expressing either CoilY-mCherry or CoilZ-GFP.
# (§4) The disclosed methods were tested in transfected human osteosarcoma cells (U-2 OS). A pDisplay vector was used to target CoilZ-EGFP and untagged EGFP to the cell surface. This construct includes a C-terminal fusion to the transmembrane domain of the platelet derived growth factor receptor. As expected, both CoilZ-EGFP and untagged EGFP localized to the cell surface, and green fluorescence was observed within 24 h of transfection. Then the cells were blocked with 6% BSA and 10% FBS for 30 minutes at 37° C. and then contacted with an AF647-conjugated CoilY probe (CoilY-AF647), 30 min at 4° C. Cells were fixed before imaging by confocal fluorescence microscopy. The probe peptides are membrane impermeant; only cell-surface EGFP was accessible to CoilY-AF647 for labeling. Colocalization of green fluorescent CoilZ-EGFP with CoilY-AF647 was observed.
# The CoilY/CoilZ tag set is bidirectional—either CoilZ or CoilY can serve as the probe peptide. CoilY-EGFP was expressed on the surface of U2OS cells and labeled with CoilZ-AF647. […]
# CoilY-EGFP-TM = assay: Flow cytometry of probe labeling, live U-2 OS cells expressing CoilY-EGFP-TM; format: cell-based, human; conditions: 500 nM probe
# Excerpt: (§5) Cells were gated for green fluorescence and analyzed for labeling with CoilY-AF647 (A) or CoilZ-AF647 (B). Transfected cells expressed CoilZ-EGFP-TM (green), CoilY-EGFP-TM (blue), or untagged EGFP-TM (gray). Values in bold indicate the median AF647 fluorescence for each cell population.
# (§6) The in vitro results were translated to living cells. Flow cytometry was used to evaluate protein labeling in live human osteosarcoma (U-2 OS) cells expressing CoilZ-EGFP-TM, CoilY-EGFP-TM, or untagged EGFP-TM (FIG. 11). Cells were treated with 500 nM AF647-conjugated probe peptide before analysis, and we gated for EGFP-expressing cells. […] Non-specific labeling of untagged EGFP-TM and homodimerization with CoilY-EGFP-TM were minimal for cells exposed to CoilY-AF647. Cells expressing CoilY-EGFP-TM were labeled with CoilZ-AF647, but with only a 4-fold enhancement.
# CoilZ-EGFP-TM = assay: Flow cytometry of probe labeling, live U-2 OS cells expressing CoilZ-EGFP-TM; format: cell-based, human
# Excerpt: as §5
# FIGS. 25A and 25B provide flow analysis of cells treated with CoilY-AF647. In FIG. 25A U-2 OS cells were transfected with EGFP-TM or CoilZ-EGFP-TM and treated with increasing concentrations of CoilY-AF647. Single, live, green fluorescent cells expressing untagged (left) or tagged (right) EGFP-TM were counted and analyzed for labeling without probe peptide (0 nM) or with CoilY-AF647 (50, 100, 300, 500, 750, or 1000 nM). Values within each histogram indicate the median AF647 fluorescence for each cell population. Data analyzed included between 26,000 and 35,000 live, singlet GFP+ cells.
# The in vitro results were translated to living cells. Flow cytometry was used to evaluate protein labeling in live human osteosarcoma (U-2 OS) cells expressing CoilZ-EGFP-TM, CoilY-EGFP-TM, or untagged EGFP-TM (FIG. 11). […]
# Protein labeling was assessed as a function of CoilY-AF647 concentration (FIG. 25). […] Cells had 21- to 44-fold higher median fluorescence compared to cells expressing untagged protein. Treatment with 300 nM AF647-CoilY gave optimal labeling, with 98% of cells labeled and a 35-fold increase in AF647 fluorescence. […]
# untagged EGFP-TM = assay: Flow cytometry of probe labeling, live U-2 OS cells expressing untagged EGFP-TM; format: cell-based, human; conditions: 500 nM probe
# Experimental: as §6
# Protein labeling was assessed as a function of CoilY-AF647 concentration (FIG. 25). Live cells expressing CoilZ-EGFP-TM or untagged EGFP-TM were treated with a range of CoilY-AF647 concentrations (50 nM to 1000 nM for 30 min at room temperature). […] Cells had 21- to 44-fold higher median fluorescence compared to cells expressing untagged protein. Treatment with 300 nM AF647-CoilY gave optimal labeling, with 98% of cells labeled and a 35-fold increase in AF647 fluorescence. Treatment with an excess of probe peptide (i.e., 1000 nM) enhanced the AF647 signal, but at the cost of a small increase in non-specific labeling.
# CoilZ-EGFP = assay: Fluorescence microscopy labeling of cell-surface CoilZ-GFP (CoilZ-EGFP); format: cell-based, human
# Experimental: as §2, §3, §4
# (§7) The CoilY/CoilZ tag set is also compatible with live-cell imaging. CoilZ-EGFP was contacted with CoilY-AF647 in live U2OS cells. […] Homodimerization was not observed for CoilY-EGFP incubated with CoilY-AF647. Non-specific labeling of untagged GFP was not observed (FIG. 26). Cells internalize labeled targets over time. CoilZ-GFP and CoilY-AF647 co-localization was observed on the surface and in endocytic vesicles due to rapid internalization, and AF647 signal accumulated inside cells during a 40 min. long incubation at room temperature (FIG. 12).
# The VIPY/Z tag set can be used to label multiple protein targets simultaneously. Cells expressing CoilY-mCherry were combined with those expressing CoilZ-EGFP-pDisplay (FIG. 9). This mixed cell population, as well as unmixed CoilZ-GFP, CoilY-mCherry, and untagged controls, were plated for imaging. […] Fluorescence was detected by confocal fluorescence imaging. […]
# CoilY-mCherry [5] = assay: Two-target fluorescence imaging, cells expressing CoilY-mCherry; format: cell-based; conditions: fluorescence microscopy
# Excerpt: as §3
# The VIPY/Z tag set can be used to label multiple protein targets simultaneously. Cells expressing CoilY-mCherry were combined with those expressing CoilZ-EGFP-pDisplay (FIG. 9). This mixed cell population, as well as unmixed CoilZ-GFP, CoilY-mCherry, and untagged controls, were plated for imaging. After blocking for 30 minutes at 37° C. with 6% BSA, 10% FBS, cells were treated at 4° C. with 500 nM CoilZ-biotin for 15 min and then 500 nM CoilY-AF647 for 15 min. […] Cells were then fixed, blocked for 1 hour with 6% BSA, 10% FBS and treated with Qdot565-conjugated streptavidin in order to label CoilZ-biotin. Fluorescence was detected by confocal fluorescence imaging. […] So the CoilY/Z tag set can be used to image up to four proteins at once.
# CoilY-EGFP = assay: Fluorescence microscopy labeling of cell-surface CoilY-GFP (CoilY-EGFP); format: cell-based, human; conditions: fluorescence microscopy
# Experimental: as §2
# The CoilY/CoilZ tag set is bidirectional—either CoilZ or CoilY can serve as the probe peptide. CoilY-EGFP was expressed on the surface of U2OS cells and labeled with CoilZ-AF647. Protein labeling was rapid (<30 min) and specific; non-specific labeling of untagged EGFP was not observed. Homodimerization was not observed for either CoilZ-AF647 with CoilZ-EGFP or CoilY-AF647 with CoilY-EGFP (FIG. 3B).
# as §7
# T1 sequence (P02786 whole entry): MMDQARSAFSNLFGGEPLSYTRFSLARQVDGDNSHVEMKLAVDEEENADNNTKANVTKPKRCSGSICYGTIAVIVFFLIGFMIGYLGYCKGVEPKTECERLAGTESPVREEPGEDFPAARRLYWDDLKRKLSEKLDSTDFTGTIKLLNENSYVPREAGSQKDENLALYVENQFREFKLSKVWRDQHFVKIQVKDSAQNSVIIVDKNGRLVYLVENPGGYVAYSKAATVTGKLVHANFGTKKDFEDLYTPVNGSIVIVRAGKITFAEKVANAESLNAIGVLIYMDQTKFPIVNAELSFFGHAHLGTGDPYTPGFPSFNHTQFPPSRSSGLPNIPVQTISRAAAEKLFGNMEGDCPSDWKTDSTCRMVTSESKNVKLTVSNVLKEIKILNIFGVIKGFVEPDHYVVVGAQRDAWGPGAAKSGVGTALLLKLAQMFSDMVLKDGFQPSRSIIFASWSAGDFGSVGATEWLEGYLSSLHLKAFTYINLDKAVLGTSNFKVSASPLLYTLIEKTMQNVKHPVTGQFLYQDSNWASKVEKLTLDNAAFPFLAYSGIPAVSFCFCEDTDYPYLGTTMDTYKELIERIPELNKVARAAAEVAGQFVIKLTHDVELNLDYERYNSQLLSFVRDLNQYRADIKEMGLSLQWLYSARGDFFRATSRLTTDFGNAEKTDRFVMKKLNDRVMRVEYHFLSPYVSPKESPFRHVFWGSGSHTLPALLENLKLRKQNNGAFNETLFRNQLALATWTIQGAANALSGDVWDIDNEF
molecule,measurement,setting,value
B1,Cy5 signal in cells expressing untagged mEmerald constructs,[1],no significant Cy5 signal
same,labeling of cells expressing untagged TfR1,untagged TfR1,no CoilR-Cy5 signal; also recorded: showed now labeling
B2,least amount of His6-CoilY-mCherry detected,His6-CoilY-mCherry,3 ng
same,probe peptide binding to CoilY-mCherry on membrane,CoilY-mCherry [2],specific coiled-coil heterodimer formation could be detected; also recorded: Probe peptide binding was detected
same,labeling of untagged proteins on membrane,[3],not labeled
B3,non-specific labeling of untagged fluorescent proteins,[4],did not interact; also recorded: No CoilY-AF647 labeling was detected; also recorded: not observed
same,homodimerization with CoilY-EGFP-TM,CoilY-EGFP-TM,minimal
same,cells labeled,CoilZ-EGFP-TM; 300 nM probe,98%
same,enhancement of protein labeling (AF647 fluorescence),"CoilZ-EGFP-TM; 500 nM probe, live U-2 OS, gated for EGFP",greater than 40 fold
same,non-specific labeling of untagged EGFP-TM,untagged EGFP-TM,minimal
same,labeling time (rapid),"CoilZ-EGFP; cell-surface CoilZ-GFP/EGFP, live-cell compatible",< 30 min
same,"labeling of CoilZ-GFP/EGFP (specificity, colocalization)",CoilZ-EGFP; fluorescence microscopy,target-specific; also recorded: labeled; also recorded: Colocalization; also recorded: specifically label
same,homodimerization / cross-reactivity of CoilY probe with CoilY-mCherry,CoilY-mCherry [5],not observed; also recorded: no cross-reactivity
same,homodimerization of CoilY probe with CoilY-GFP/EGFP,CoilY-EGFP,not observed
